Test results as given in US7115267.

Legend:
mu opiate receptor = assay: cell-based or functional assay
[1] = molecular target: p141-ubiquitin fusion protein (human) (UniProt P0CG47); assay: cell-based or functional assay
p141-ubiquitin fusion protein (human), sequence (P0CG47 other isoform, or with tags, fused parts or gaps): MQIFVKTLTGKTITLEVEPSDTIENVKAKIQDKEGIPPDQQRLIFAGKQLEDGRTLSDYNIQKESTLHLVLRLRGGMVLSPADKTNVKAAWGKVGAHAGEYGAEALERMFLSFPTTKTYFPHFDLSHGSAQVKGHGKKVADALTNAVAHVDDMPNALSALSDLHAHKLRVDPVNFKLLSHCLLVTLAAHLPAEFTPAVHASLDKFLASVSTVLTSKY

Row | digestion of the ubiquitin fusion protein in vivo (co-expression in bacteria) [1] | Substance | % Kill in the CFU-MIX cycling assay, Human Alpha (100 ng/ml) + CTOP 10^-7 M (0 without CTOP; control 42; CTOP alone 36) (mu opiate receptor)
1 | – | Purified human hemoglobin alpha chain (from UniProt P69905 2-142) | 20%
2 | 70% | UBP1 ubiquinase (from UniProt P25037 1-809) (enzyme) | –
